pKd: −log10 of the molar value.
Molecular target: CBD-NpuDnaE_(NΔ16)
Assay: SPR

- pKd: 8.80
Substance: NpuDnaEC16-eGFP (domain or fragment)

Source: article doi:10.1101/215566
